Assay results reported in publication PMC4716841, “Attenuation of AMPK signaling by ROQUIN promotes T follicular helper cell formation” (eLife, 2015).

Target: T1, AMPKα1, endogenous (mouse), catalytic α1 subunit of adenosine monophosphate-activated protein kinase (mouse (endogenous in primary C57BL/6 …, UniProt Q5EG47 1-559))
T1 construct: AMPK catalytic α1 subunit, encoded by Prkaa1, endogenous in mouse cells; In the cells it may stand with AMPK β and γ subunits; also called α1 subunit of AMPK; encoded by Prkaa1; source: endogenous, primary C57BL/6 MEFs (in situ); endogenous, EL4 cell lysate
Assay: proximity ligation; in situ PLA on primary C57BL/6 MEFs, endogenous proteins; goat anti-AMPKα1 (C20) with rabbit anti-ROQUIN, overnight at 4°C; resting cells or 1 mM arsenite for 1 hr; control PLA GFP:AMPKα1
Conditions: partners not purified

T1 sequence (Q5EG47 whole entry): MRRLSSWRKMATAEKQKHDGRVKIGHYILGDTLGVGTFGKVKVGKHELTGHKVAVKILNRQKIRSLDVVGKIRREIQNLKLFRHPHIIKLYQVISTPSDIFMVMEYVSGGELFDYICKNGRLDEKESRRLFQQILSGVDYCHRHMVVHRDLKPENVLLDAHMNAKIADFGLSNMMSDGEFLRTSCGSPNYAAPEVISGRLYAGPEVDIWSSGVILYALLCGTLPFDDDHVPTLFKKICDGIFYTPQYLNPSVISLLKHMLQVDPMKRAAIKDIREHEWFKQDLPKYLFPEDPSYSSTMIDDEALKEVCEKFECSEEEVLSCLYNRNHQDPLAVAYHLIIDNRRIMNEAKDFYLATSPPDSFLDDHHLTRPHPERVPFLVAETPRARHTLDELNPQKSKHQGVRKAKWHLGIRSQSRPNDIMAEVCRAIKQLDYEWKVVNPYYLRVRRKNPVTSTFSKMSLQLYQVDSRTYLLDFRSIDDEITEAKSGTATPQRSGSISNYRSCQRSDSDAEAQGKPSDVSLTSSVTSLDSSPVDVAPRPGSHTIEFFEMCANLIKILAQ

B1: ROQUIN, endogenous (mouse) (natural protein, UniProt Q4VGL6 1-1130, looked up)
chain: MPVQAPQWTDFLSCPICTQTFDETIRKPISLGCGHTVCKMCLNKLHRKACPFDQTTINTDIELLPVNSALLQLVGAQIPEQQPITLCSGVEDTKHYEEAKKCVEELALYLKPLSSARGVGLNSTTQSVLSRPMQRKLVTLVHCQLVEEEGRIRAMRAARSLGERTVTELILQHQNPQQLSSNLWAAVRARGCQFLGPAMQEEALKLVLLALEDGSALSRKVLVLFVVQRLEPRFPQASKTSIGHVVQLLYRASCFKVTKRDEDSSLMQLKEEFRTYEALRREHDSQIVQIAMEAGLRIAPDQWSSLLYGDQSHKSHMQSIIDKLQTPASFAQSVQELTIALQRTGDPANLNRLRPHLELLANIDPSPDAPPPTWEQLENGLVAVRTVVHGLVDYIQNHSKKGADQQQPPQHSKYKTYMCRDMKQRGGCPRGASCTFAHSQEELEKFRKMNKRLVPRRPLSASLGQLNEVGLPSAPILSDESAVDLSNRKPPALPNGIASSGSTVTQLIPRGTDPSFDSSLKPVKLDHLSSSAPGSPPDLLESAPKSISALPVNPHPVPPRGPTDLPPMPVTKPIQMVPRGSQLYPAQQADVYYQDPRGSAPAFETAPYQQGMYYTPPPCVSRFVRPPPSAPEPGPPYLDHYSPYLQDRVINSQYGTQPQQYPPMYPAHYDGRRVYPAQSYTREEMFRESPIPIDIPSAAVPSYVPESRERYQQVEGYYPVAPHPAQIRPSYPRDPPYSRLPPPQPHPSLDELHRRRKEIMAQLEERKVISPPPFAPSPTLPPAFHPEEFLDEDLKVAGKYKANDYSQYSPWSCDTIGSYIGTKDAKPKDVVAAGSVEMMNVESKGTREQRLDLQRRAVETSDDDLIPFGDRPTVSRFGAISRTSKTLYQGAGPLQAIAPQGAPTKSINISDYSAYGAHGGWGDSPYSPHANIPPQGHFIEREKMSMAEVASHGKPLLSAEREQLRLELQQLNHQISQQTQLRGLEAVSNRLVLQREVNTLASQPQPPQLPPKWPGMISSEQLSLELHQVEREIGKRTRELSMENQCSVDMKSKLGTSKQAENGQPEPQNKIRTEDLTLTFSDVPNGSALTQENLSLLSNKTSSLNLSEDSEGGGDNNDSQRSGVVSNSAP
notes: ROQUIN (ROQUIN1), encoded by Rc3h1, endogenous in mouse cells; also called ROQUIN1; encoded by Rc3h1; source: endogenous, primary C57BL/6 MEFs (in situ); endogenous, EL4 cell lysate
- fold PLA frequency over the ROQUIN:AGO2 PLA of earlier work: ≥ 15 fold
